The nature of this data set: observation during stepwise remodeling. The conditions noted are these: glycan lost; control: commercial rhGAA.

“recombinant human acid α-glucosidase (rhGAA, Lumizyme): Endo-F3 deglycosylation”: the stability_or_folding result was “decreases”.

These data come from publication PMC8480326, “Chemoenzymatic glycan-selective remodeling of a therapeutic lysosomal enzyme with high-affinity M6P-glycan ligands. Enzyme substrate specificity is the name of the game” (Chemical Science, 2021).
